This note sets out measurements from PMC6889914, “Identifying dynamic, partially occupied residues using anomalous scattering” (Acta Crystallographica. Section D, Structural Biology, 2019).

Test [1] has as its target T1, Spy H96L (UniProt P77754 24-161, H96L).
T1 sequence: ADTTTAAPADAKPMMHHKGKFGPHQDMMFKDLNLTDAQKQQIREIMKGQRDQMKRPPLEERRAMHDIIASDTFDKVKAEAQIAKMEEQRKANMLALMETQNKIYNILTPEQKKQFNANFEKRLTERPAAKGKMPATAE
Put plainly: ITC. (In ITC the heat of successive injections is recorded.)

Test [2] deals with T2, Spy H96L (UniProt P77754 24-161, H96L).
T2 construct: also called Super Spy chaperone mutant Spy H96L
T2 sequence (looked up): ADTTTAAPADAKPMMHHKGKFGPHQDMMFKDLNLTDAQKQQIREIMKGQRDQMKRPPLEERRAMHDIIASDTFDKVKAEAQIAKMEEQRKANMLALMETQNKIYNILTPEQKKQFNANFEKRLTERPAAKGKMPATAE
Put plainly: ITC; MicroCal iTC200; titration of Spy H96L (1.25 mM) with the Im7 6–26 peptides (0.11 µM wild type, 0.055 µM pI-Phe peptides); 10°C; 40 mM HEPES–NaOH pH 7.5, 100 mM NaCl; 2 µl injections at 180 s; one-site model. Particulars: both partners purified.

The Kd is the concentration at which binding is half-saturated. The low end stands for tighter binding, the high end for weaker binding.

Where no end group is shown, it is not given here. [ ]: non-standard residue; d: D form. Phe(4-I) = N[C@@H](Cc1ccc(I)cc1)C(=O)O

The molecule SISDYTEAEFVQ[Phe(4-I)]LKEIEKEN [Im7 6–26 peptide L18pI-Phe] displayed a Ka with Spy H96L [1] of 1.59e+06 M⁻¹. In addition, the binding result with Spy H96L [2] is “binds”.

B1: Im7 6–26 peptide (wild type) (peptide)
peptide: SISDYTEAEFVQLLKEIEKEN
notes: also called wild-type Im7 6–26 peptide; Im7 peptide
Regarding B1, the Ka with Spy H96L [1] came to 102000 M⁻¹. In the test with Spy H96L [2], this molecule returned a Kd of 7.8 ± 0.6 µM.

B2: Im7 6–26 peptide K20pI-Phe (peptide)
peptide: SISDYTEAEFVQLLFEIEKEN
notes: also called L20pI-Phe (as misprinted in places)
In the test with Spy H96L [1], B2 gave a Ka of 218000 M⁻¹. Besides, the binding result with Spy H96L [2] was “binds”.
The like results for SISDYTEAEFVQL[Phe(4-I)]KEIEKEN [Im7 6–26 peptide L19pI-Phe] were, in that order, 219000 M⁻¹ and “binds”.
